# Entries after “also recorded” stand apart in the source; their conditions may differ.
# B1: follistatin: an activin-antagonist protein; isoform not stated in these examples (protein, UniProt P19883 30-344, looked up)
# Follistatin: GNCWLRQAKNGRCQVLYKTELSKEECCSTGRLSTSWTEEDVNDNTLFKWMIFNGGAPNCIPCKETCENVDCGPGKKCRMNKKNKPRCVCAPDCSNITWKGPVCGLDGKTYRNECALLKARCKEQPELEVQYQGRCKKTCRDVFCPGSSTCVVDQTNNAYCVTCNRICPEPASSEQYLCGNDGVTYSSACHLRKATCLLGRSIGLAYEGKCIKAKSCEDIQCTGGKKCLWDFKVGRGRCSLCDELCPDSKSDEPVCASDNATYASECAMKEAACSSGVLLEVKHSGSCNSISEDTEEEEEDEDQDYSFPISSILEW
# B2: activin A: dimeric protein of the TGF-β superfamily, added exogenously at 200 pM (protein, UniProt P08476 311-426, looked up)
# Inhibin beta A chain: GLECDGKVNICCKKQFFVSFKDIGWNDWIIAPSGYHANYCEGECPSHIAGTSGSSLSFHSTVINHYRMRGHSPFANLKSCCVPTKLRPMSMLYYDDGQNIIKKDIQNMIVEECGCS
# modifications: Inhibin beta A chain homodimer
# notes: dimeric protein of the TGF-β superfamily, added exogenously at 200 pM
# Key:
# Format in all cases: cell-based, human
# keloid fibroblasts [1] = experiment: qRT-PCR relative gene expression in keloid fibroblasts
# Method: (§1) Normal and keloid tissue samples were collected from 11 patients and were used to establish primary fibroblast cultures. Using these fibroblasts, qRT-PCR for relative gene expressions and enzyme-linked immunosorbent assay (ELISA) for relative protein expressions were performed. Fibroblasts were also treated with 200 pM activin for 24 hours to examine the effects on fibrosis-related genes.
# (§2) Normal and keloid tissue samples were collected from 11 patients and used to establish primary fibroblast cell cultures as described in Example 1. Relative expressions of fibrosis-related genes were examined using qRT-PCR. Protein levels of activin and follistatin, an activin-antagonist, were also measured by ELISA and radioimmunoassay in lysates of dermal fibroblasts. Furthermore, keloid fibroblasts were treated with 1 nM follistatin for 24 hours to examine the effects on fibrosis-related genes.
# (§3) Normal and keloid fibroblasts were isolated and cultured from a patient. Relative expressions of fibrosis-related genes were examined using qRT-PCR. Protein levels of activin and follistatin were also measured by ELISA and radioimmunoassay in dermal fibroblasts as described in Example 2. Furthermore, keloid fibroblasts were daily treated with 1 nM follistatin for 1, 3 and 5 days to examine the effects on fibrosis-related genes.
# (§4) Normal and keloid fibroblasts were isolated and cultured in vitro using standard fibroblast cell culture protocols. Relative gene expressions were examined using qRT-PCR. Protein levels of activin and follistatin were also measured in dermal fibroblasts by enzyme-linked immunosorbent assay and radioimmunoassay respectively. Cells were also treated with 100 ng/ml follistatin for 5 days to examine the effects on the expression of fibrosis-related genes.
# (§5) The upregulation of CTGF by activin A was also confirmed in the multiple patient samples (FIG. 8n).
# (§6) To investigate the role of AP1 in keloid pathogenesis, fibroblasts were treated for 3 days with SR11302, an inhibitor of AP1 activity. […] Moreover, in order to examine the effects of FST288, fibroblasts were treated for 3 days or 5 days.
# normal fibroblasts [2] = experiment: qRT-PCR relative gene expression in normal fibroblasts
# Method: as §1, §2, §3, §4, §5, §6
# keloid fibroblasts [3] = experiment: Activin A protein in cell lysate and media of keloid fibroblasts; settings: after treatment with AP1 inhibitor
# Method: as §1, §4, §6
# normal fibroblasts [4] = experiment: Activin A protein in cell lysate and media of normal fibroblasts; settings: after treatment with AP1 inhibitor
# Method: as §1, §4, §6
# keloid fibroblasts [5] = experiment: Tolerance of keloid fibroblasts in culture (cell death); settings: 3 days
# Method: as §6
# normal fibroblasts [6] = experiment: Tolerance of normal fibroblasts in culture (cell death); settings: 3 days
# Method: as §6
# keloid fibroblasts [7] = experiment: RNA sequencing of keloid fibroblast cultures with/without follistatin; settings: single follistatin treatment
# Method: RNAseq was performed with/without a single follistatin treatment on normal and keloid fibroblast cultures on day 1 and day 5 (FIG. 7) to compare the extent of gene expression changes in keloid disease.
# [8] = SR11302 10 uM and 15 uM, 3 days
# [9] = daily 1 nM follistatin, five days
molecule,measurement,setting,value
CC1=C(/C=C/C(=C/C=C/C(C)=C/C(=O)O)c2ccc(C)cc2)C(C)(C)CCC1 [SR11302],CTGF gene expression,keloid fibroblasts [1]; [8],significantly decreased
same,INHBA gene expression,keloid fibroblasts [1]; [8],significantly decreased
same,CTGF gene expression,normal fibroblasts [2]; [8],significantly decreased
same,INHBA gene expression,normal fibroblasts [2]; [8],significantly decreased
same,activin A protein in cell lysate and media,keloid fibroblasts [3],significantly decreased
same,activin A protein in cell lysate and media,normal fibroblasts [4],significantly decreased
same,doses resulting in cell death,keloid fibroblasts [5],higher than 20 uM
same,doses resulting in cell death,normal fibroblasts [6],higher than 20 uM
B1,CTGF gene expression,"keloid fibroblasts [1]; 1 nM follistatin, 24 hours",significantly decreased
same,activin A gene expression,"keloid fibroblasts [1]; 1 nM follistatin, 24 hours",significantly decreased
same,CTGF (downstream target of activins) expression,"keloid fibroblasts [1]; 100 ng/ml follistatin, vs controls",declined significantly
same,activin A expression of the gene and its protein,keloid fibroblasts [1]; after treatment with follistatin (summary of Examples 1 to 3),significant downregulation
same,CTGF gene expression,keloid fibroblasts [1]; [9],significantly decreased
same,activin A gene expression,keloid fibroblasts [1]; [9],significantly decreased
same,activin A gene expression,"keloid fibroblasts [1]; single treatment, 100 ng/ml follistatin",significantly decreased
same,INHBA expression (RNAseq),"keloid fibroblasts [7]; 5 days, 100 ng/ml",diminished
same,CTGF expression (RNAseq),"keloid fibroblasts [7]; day 5, 100 ng/ml",significantly decreased
same,PAI1 expression (RNAseq),"keloid fibroblasts [7]; day 5, 100 ng/ml",significantly decreased
same,other matrix related genes (RNAseq),"keloid fibroblasts [7]; day 5, 100 ng/ml",downregulated
B2,CTGF gene expression,"keloid fibroblasts [1]; 200 pM activin A, 24 hours",significantly upregulated
same,FOSB gene expression,"keloid fibroblasts [1]; 200 pM activin A, 24 hours",significantly upregulated
same,IL6 gene expression,"keloid fibroblasts [1]; 200 pM activin A, 24 hours",significantly upregulated
same,INHBA (activin A) gene expression,"keloid fibroblasts [1]; 200 pM activin A, 24 hours",further significant upregulation; also recorded: significantly upregulated
same,JUNB gene expression,"keloid fibroblasts [1]; 200 pM activin A, 24 hours",significantly upregulated
same,PAI1 gene expression,"keloid fibroblasts [1]; 200 pM activin A, 24 hours",significantly upregulated
same,TGFB2 gene expression,"keloid fibroblasts [1]; 200 pM activin A, 24 hours",significantly upregulated
same,CTGF expression in fibroblasts from multiple patients,"keloid fibroblasts [1]; 200 pM activin A, multiple patient samples (normal/keloid not distinguished)",upregulation; also recorded: increased
same,CTGF gene expression,"normal fibroblasts [2]; 200 pM activin A, 24 hours",significantly upregulated
same,FOSB gene expression,"normal fibroblasts [2]; 200 pM activin A, 24 hours",significantly upregulated
same,IL6 gene expression,"normal fibroblasts [2]; 200 pM activin A, 24 hours",significantly upregulated
same,INHBA (activin A) gene expression,"normal fibroblasts [2]; 200 pM activin A, 24 hours",significantly upregulated
same,JUNB gene expression,"normal fibroblasts [2]; 200 pM activin A, 24 hours",significantly upregulated
same,PAI1 gene expression,"normal fibroblasts [2]; 200 pM activin A, 24 hours",significantly upregulated
same,TGFB2 gene expression,"normal fibroblasts [2]; 200 pM activin A, 24 hours",significantly upregulated

# Source: patent publication US20210062263A1, “A CLINICAL […]” (priority 2016, published 2021)
